Assay results: patent US20240067944A1 (published 2024)
No end group written: not given here.

Legend:
Experiment in all cases: ELISA, biotinylated 12-mer peptide on streptavidin, 2 ug/mL FLAG-tagged VHH, anti-FLAG-HRP
[1] = molecular target: T1, DLDPTENPFDLL (human)
T1 peptide: DLDPTENPFDLL-biotin
Method: (§1) To determine whether the binding epitope of the anti-FX VHH polypeptide designated “cmpd #1” are located inside the activation peptide (AP) of human FX (SEQ ID NO:2), an ELISA assay was setup. 41 unique 12-mer peptide fragments spanning the 52 residues of the activation peptide with one amino acid spacing were immobilized in microtiter plate wells followed by incubation with the VHH polypeptide to be tested, and detection of bound ligand was performed by addition of a secondary HRP-labelled antibody.
(§2) The peptides were C-terminally conjugated to biotin and 50 μL of 1 μg/mL peptide solution was used for immobilization in discrete wells of the microtiter plate which was pre-coated with 1 μg/mL streptavidin. Each well was washed with washing buffer (10 mM Tris, 150 mM NaCl, 2.5 mM CaCl₂), 0.05% Tween 20, pH 8.60) followed by addition of 50 μL of 2 μg/mL FLAG-tagged anti-FX VHH polypeptide or IgG antibody to be tested. After 1 hour non-bound VHH polypeptide was washed off using washing buffer.
(§3) Bound anti-FX activation peptide ligand was detected by first binding a HRP-labelled secondary antibody (for FLAG-tagged VHH polypeptide: Anti-FLAG mAb M2-Peroxidase (HRP) (Sigma Aldrich, US) for 1 hour, and then adding 100 μL TMB-1 ELISA substrate (Kem-En-Tec Diagnostics, Denmark).

[2] = molecular target: T2, SSGEAPDSITWK (human)
T2 peptide: SSGEAPDSITWK-biotin
Method: as §1, §2, §3

[3] = molecular target: T3, NQTQPERGDNNL (human)
T3 peptide: NQTQPERGDNNL-biotin
Method: as §1, §2, §3

[4] = molecular target: T4, AQATSSSGEAPD (human)
T4 peptide: AQATSSSGEAPD-biotin
Method: as §1, §2, §3

[5] = molecular target: T5, PYDAADLDPTEN (human)
T5 peptide: PYDAADLDPTEN-biotin
Method: as §1, §2, §3

[6] = molecular target: T6, SSSGEAPDSITW (human)
T6 peptide: SSSGEAPDSITW-biotin
Method: as §1, §2, §3

[7] = molecular target: T7, ATSSSGEAPDSI (human)
T7 peptide: ATSSSGEAPDSI-biotin
Method: as §1, §2, §3

[8] = molecular target: T8, GEAPDSITWKPY (human)
T8 peptide: GEAPDSITWKPY-biotin
Method: as §1, §2, §3

[9] = molecular target: T9, VAQATSSSGEAP (human)
T9 peptide: VAQATSSSGEAP-biotin
Method: as §1, §2, §3

[10] = molecular target: T10, DFNQTQPERGDN (human)
T10 peptide: DFNQTQPERGDN-biotin
Method: as §1, §2, §3

[11] = molecular target: T11, LDPTENPFDLLD (human)
T11 peptide: LDPTENPFDLLD-biotin
Method: as §1, §2, §3

[12] = molecular target: T12, PFDLLDFNQTQP (human)
T12 peptide: PFDLLDFNQTQP-biotin
Method: as §1, §2, §3

[13] = molecular target: T13, FDLLDFNQTQPE (human)
T13 peptide: FDLLDFNQTQPE-biotin
Method: as §1, §2, §3

[14] = molecular target: T14, FNQTQPERGDNN (human)
T14 peptide: FNQTQPERGDNN-biotin
Method: as §1, §2, §3

[15] = molecular target: T15, AADLDPTENPFD (human)
T15 peptide: AADLDPTENPFD-biotin
Method: as §1, §2, §3

[16] = molecular target: T16, TSSSGEAPDSIT (human)
T16 peptide: TSSSGEAPDSIT-biotin
Method: as §1, §2, §3

[17] = molecular target: T17, KPYDAADLDPTE (human)
T17 peptide: KPYDAADLDPTE-biotin
Method: as §1, §2, §3

[18] = molecular target: T18, PTENPFDLLDFN (human)
T18 peptide: PTENPFDLLDFN-biotin
Method: as §1, §2, §3

[19] = molecular target: T19, APDSITWKPYDA (human)
T19 peptide: APDSITWKPYDA-biotin
Method: as §1, §2, §3

[20] = molecular target: T20, EAPDSITWKPYD (human)
T20 peptide: EAPDSITWKPYD-biotin
Method: as §1, §2, §3

[21] = molecular target: T21, QATSSSGEAPDS (human)
T21 peptide: QATSSSGEAPDS-biotin
Method: as §1, §2, §3

[22] = molecular target: T22, SITWKPYDAADL (human)
T22 peptide: SITWKPYDAADL-biotin
Method: as §1, §2, §3

[23] = molecular target: T23, SVAQATSSSGEA (human)
T23 peptide: SVAQATSSSGEA-biotin
Method: as §1, §2, §3

B1: Cmpd #1 (monovalent anti-FX VHH polypeptide, VHH-1.1) (VHH)
VHH: EVQLVESGGGLVQPGGSLRLSCAASGSIGAFDAMGWYRQAPGKQRELVAGIMVSRGNTNYTDSVKGRFTISRDNAKNTVYLQMNSLKPEDTAVYYCKAVKRPGPGYLEVWGQGTLVTVSS
notes: No protractor
ELISA signal normalized relative to the background signal [1]: 1 relative to background
ELISA signal normalized relative to the background signal [2]: 0.88 relative to background
ELISA signal normalized relative to the background signal [3]: 0.92 relative to background
ELISA signal normalized relative to the background signal [4]: 0.97 relative to background
ELISA signal normalized relative to the background signal [5]: 0.83 relative to background
ELISA signal normalized relative to the background signal [6]: 0.86 relative to background
ELISA signal normalized relative to the background signal [7]: 0.98 relative to background
ELISA signal normalized relative to the background signal [8]: 0.93 relative to background
ELISA signal normalized relative to the background signal [9]: 1.02 relative to background
ELISA signal normalized relative to the background signal [10]: 0.94 relative to background
ELISA signal normalized relative to the background signal [11]: 1.11 relative to background
ELISA signal normalized relative to the background signal [12]: 4.95 relative to background
ELISA signal normalized relative to the background signal [13]: 4.38 relative to background
ELISA signal normalized relative to the background signal [14]: 1 relative to background
ELISA signal normalized relative to the background signal [15]: 0.88 relative to background
ELISA signal normalized relative to the background signal [16]: 0.77 relative to background
ELISA signal normalized relative to the background signal [17]: 0.8 relative to background
ELISA signal normalized relative to the background signal [18]: 4.58 relative to background
ELISA signal normalized relative to the background signal [19]: 1.06 relative to background
ELISA signal normalized relative to the background signal [20]: 0.97 relative to background
ELISA signal normalized relative to the background signal [21]: 0.96 relative to background
ELISA signal normalized relative to the background signal [22]: 1.08 relative to background
ELISA signal normalized relative to the background signal [23]: 0.96 relative to background
